Experiments:
[1] = target: recombinant full-length PfCSP (Plasmodium falciparum circumsporozoite protein, strain NF54) (Plasmodium falciparum NF54, UniProt P19597); experiment: cell-based or functional assay
[2] = target: T1, recombinant full-length PfCSP (strain NF54) (Plasmodium falciparum NF54, UniProt P19597); experiment: BLI; Octet RED96; His-tagged PfCSP on Ni-NTA biosensors, 2-fold dilutions of mAb; PBS pH 7.4, 0.01% BSA, 0.002% Tween 20; 1:1 binding model; settings: both partners purified
T1 construct: also called NF54 PfCSP; Pf circumsporozoite protein; not shown: His tag, C-terminal, kept

NANP6 peptide = target: T2, NANP6 peptide (Plasmodium falciparum NF54); experiment: SPR; Carterra LSA; mAb amine-coupled to a CMD200M chip, peptide titrated in 2-fold steps up to 8 ug/mL without regeneration; 25 C; HBSTE (10 mM HEPES pH 7.4, 150 mM NaCl, 3 mM EDTA, 0.01% Tween 20); 1:1 Langmuir model; mean of triplicates; KD includes avidity for antigens with several repeats; settings: both partners purified
T2 construct: source: synthetic peptide (CPC Scientific)

T1 sequence (P19597 20-375): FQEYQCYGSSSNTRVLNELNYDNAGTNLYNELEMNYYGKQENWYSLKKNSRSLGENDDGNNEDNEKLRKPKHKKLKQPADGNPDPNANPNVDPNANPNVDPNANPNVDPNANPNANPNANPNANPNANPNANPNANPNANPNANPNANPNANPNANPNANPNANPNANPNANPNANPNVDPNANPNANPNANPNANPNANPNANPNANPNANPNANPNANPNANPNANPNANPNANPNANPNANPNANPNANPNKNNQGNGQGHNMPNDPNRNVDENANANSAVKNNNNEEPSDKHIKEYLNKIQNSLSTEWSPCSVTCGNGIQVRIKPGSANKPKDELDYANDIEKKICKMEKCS
Sequence of recombinant full-length PfCSP (Plasmodium falciparum circumsporozoite protein, strain NF54) (P19597 20-375): as above

Binder | other [1] [µg/mL] | kon [2] [M⁻¹ s⁻¹] | Kd (NANP6 peptide) [nM] | koff (NANP6 peptide) [s⁻¹] | kon (NANP6 peptide) [M⁻¹ s⁻¹]
mAb Ky224 (human IgG1) (antibody, V domains shown) VH: QVQLVESGGGVVQPGRSLRLSCAASGFTFSVYGMHWVRQAPGKGLEWVAVIWYDGSNKIYADSVKGRFTISRDNSKNTLYLQMDSLSAADTAVYYCAKIGSSSFDYWGQGTLVIVSS VL: DIVMTQTPLSSPVTLGQPASISCRSSQSLVHSNGITYLSWLQQRPGQPPRLLLYEISNRFSGVPDRFSGSGTGTDFTLKISRVEAEDVGVYYCMQTTQFPITFGQGTRLEIK | < 1.5 | – | – | – | –
mAb CIS43 (antibody, V domains shown, also called CIS4317 (label with citation mark 17)) VH: QVQLVQSGAEVKKPGASVKVSCKASGYTFTSYAIHWVRQAPGQRLEWMGWIKAGNGNTRYSQKFQDRVTITRDTSTTTAYMELSSLRSEDTAVYYCALLTVLTPDDAFDIWGQGTMVTVSS VL: not shown | – | 444000 | 54.9 | 0.00974 | 179000
mAb Ky15.8 (human IgG1) (antibody, V domains shown) VH: QVQLVESGGNVVQPGRSLRLSCTASGFTFSSYGMHWVRQAPDKGLEWVAIIWYDGGNKFYADSVKGRFTISRDNSKDTLYLQMNSLRAEDTAVYYCAKAWYKIDDKYSMDVWGQGTTVTVSS VL: not shown | < 1.5 | – | – | – | –
mAb Ky15.7 (human IgG1) (antibody, V domains shown) VH: QVQVVESGGGAVQPGRSLRLSCAASGFTFSNRGMHWVRQTPGKGLEWVAIIWYDGGNKFYADSVKGRFTISRDNSKNTLYLQMNSLRDEDTAVYYCVRAGDWKADKYTMDVWGQGTTVTVSS VL: DIQMTQSPSTLSASVGDRVTITCRASQSISSWLAWYQQKPGKAPKVLIYQASSLESGVPSRFSGSGSGTEFTLTISSLQPDDFATYYCQQYNSYWTFGQGTKVEIK | < 1.5 | – | – | – | –
mAb Ky15.11 (human IgG1) (antibody, V domains shown) VH: QVQLVESGGGVVQPGRSLRLSCEASGFTFSNFGMHWVRQTPVKGLEWVAIIWFDGSYKYYTDSVKGRFTISRDNSKNTLYLQMNSLRAEDTAVYYCARARKGQRSDYYGSETSYTFDNWGQGTLVTVSS VL: DIQMTQSPSTLSASVGDRVTITCRASQSINGWLAWYQQKPGKAPKFLIYKASILESGIPSRFSGSGSGTEFTLTISSLQPDDFATYYCQQYSSYWTFGQGTKVEIK | < 1.5 | – | – | – | –
mAb 2541 (antibody, V domains shown, also called 254121 (label with citation mark 21)) VH: QVQLVESGGGVVQPGRSLRLSCAASGFTFSSYGMHWVRQTTGKGLEWVAIIWHDGSKKYYADSVKGRLTISRDNSKNTLYLQMNSLRVEDTALYYCARVGDYSDFKYGAFDIWGQGTMVTVSS VL: DIQMTQSPSTLSASVGDRVTITCRASQSISSWLAWYQQKPGKAPNLLIYKASTLESGVPSRFSGSGSGTEFTLTISSLQPDDFATYYCQQYNSYWTFGQGTRVEIK | – | 71000 | ≤ 0.133 | ≤ 1e-05 | 86600
mAb Ky15.10 (human IgG1) (antibody, V domains shown) VH: QVQLVESGGGVVQPGRSLRLSCAASGFTFSNSGMHWVRQVPGKGLEWVAIIWYDGSNKYYADSVKGRFSVSRDNSENTLYLQMSNLRAEDTAVYYCVRAYFDSENLYDYYGMDVWGQGTTVTVSS VL: DIQMTQSPSTLSASVGDRVTITCRASQSISRWLAWFQKKPGKAPKLLIYTASNLESGVPSRFSGSGSGTEFTLTISSLQPDDFATYYCQQYYNYWTFGQGTKVEVK | < 1.5 | – | – | – | –
mAb 317 (antibody, V domains shown, also called 31715 (label with citation mark 15)) VH: QMQLVESGGGVVQPGRSLRLSCTASGFTFSTYAMHWVRQSPGQGLQWVAVISYHSTNKYYEDSVRGRFTISRDNSKNTLYLQMNSLRAEDTAVYYCARDGYSSSFFDFWGQGTLVTVSS VL: DIQMTQSPSTLSASVGDRVAITCRASQSISRWLAWYQQQPGKAPKLLMSGASVLESGVPSRFSGSGSGTEFTLTISSLQPDDFATYYCQHYNSYFVTFGQGTKVEIK | – | 27200 | 0.404 | 0.000118 | 292000

Reference: publication PMC10720262 (Cell Reports, 2023)
